Results: patent US20170137504A1 (TERACLON IDF S L, published 2017)
Values belong to the binder of their own block, whether it stands above or below them.

How the values were obtained:
[1] = target: T1, VEGF (4 ng/mL, added in the in vitro angiogenesis assay) (UniProt P15692-4 27-191, limits assumed); test: cell-based or functional assay
[2] = target: T1, VEGF (4 ng/mL, added in the in vitro …); test: cell-based or functional assay; remark: listed apart in the source

T1 sequence (P15692 other isoform, or with tags, fused parts or gaps limits assumed): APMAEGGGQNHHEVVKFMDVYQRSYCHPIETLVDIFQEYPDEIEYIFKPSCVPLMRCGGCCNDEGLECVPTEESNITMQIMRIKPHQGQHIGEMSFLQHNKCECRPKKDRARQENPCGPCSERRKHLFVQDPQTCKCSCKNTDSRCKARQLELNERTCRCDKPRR

fold less antibody concentration than V13 for an inhibitory effect on angiogenesis [1]: ≤ 12 times less
IC50, average value (in vitro angiogenesis, HUVEC/NHDF co-culture) [2]: 30.2 µg/mL
IC50, branching points (in vitro angiogenesis, HUVEC/NHDF co-culture) [2]: 24.7 µg/mL
IC50, length of the tubes (in vitro angiogenesis, HUVEC/NHDF co-culture) [2]: 35.8 µg/mL
B1: anti-VEGF vNAR V19 (VNAR, not shown: small tags and cut ends)
VNAR: AQRVEQTPRTATKETGESLTINCVLRDASFELKDTGWYRTKLGSTNEQSISIGGRYVETVNKGSKSFSLRISDLRVEDSGTYKCQAFYSLPLGDYNYSLLFRGEKGAGTVLTVN

IC50, average value (in vitro angiogenesis, HUVEC/NHDF co-culture) [2]: 388 µg/mL
IC50, branching points (in vitro angiogenesis, HUVEC/NHDF co-culture) [2]: 340 µg/mL
IC50, length of the tubes (in vitro angiogenesis, HUVEC/NHDF co-culture) [2]: 436 µg/mL
B2: anti-VEGF vNAR V13 (other, not shown: small tags and cut ends)
chain: ASLDQTPRTATRETGESLSINCVLTDTSHILFGTKWLWNNPGSTDWESITIGGRYAESVNNQAKSFSLQIKDLTVEDSGTYYCKAQTIGRRKNLLPRPLVNGIAAMGYSSSDYDGAGTVLTVN

fold less antibody concentration than V13 for an inhibitory effect on angiogenesis [1]: ≤ 12 times less
IC50, average value (in vitro angiogenesis, HUVEC/NHDF co-culture) [2]: 23.4 µg/mL
IC50, branching points (in vitro angiogenesis, HUVEC/NHDF co-culture) [2]: 19.3 µg/mL
IC50, length of the tubes (in vitro angiogenesis, HUVEC/NHDF co-culture) [2]: 27.6 µg/mL
B3: anti-VEGF vNAR V32R (VNAR, not shown: small tags and cut ends)
chain: AASLDQTPRTATRETGESLTINCVFTDSSCGLCGTSWFRNNPGSTDWERITIGGRYVESVNKGAKSFSLQIKDLTVEDSVTYYCKAQGHRYFSKVCELRCPSYYYDGAGTVLTVN
